Results: patent US20140206628A1

Assays:
Details in all cases: remark: other sources report otherwise
A/USSR/90/77 (H1N1) = biological target: A/USSR/90/77 (H1N1)
A/AA/Marton/43 (H1N1) = biological target: A/AA/Marton/43 (H1N1)
[1] = biological target: A/Solomon Islands/3/06 (H1N1)
A/Beijing/262/95 (H1N1) = biological target: A/Beijing/262/95 (H1N1)

B1: HB80.3 ([change], [change], [change], [change], Delta54-95) (designed binder)
chain: MASTRGSGRPWGFSENLAFELALSFTNKDTPDRWAKVAQYVSGRTPEEVKKHYE
Binder B1 has a Kd (A/USSR/90/77 (H1N1)) of 10 nM, a Kd (A/AA/Marton/43 (H1N1)) of 10 nM and a Kd [1] of 100 nM. The Kd (A/Beijing/262/95 (H1N1)) was 10 nM.
